{
  "source": "the DeepSol protein solubility set",
  "test": "soluble on expression in E. coli; label from the status in PepcDB or PDB records",
  "data": [
    {"sequence": "MFNFANVYQQIAQHPQLQLWLNTLPQQLTDWQAKQHGDLDRWMRNLKKIPVGQPEVIDLKNAVAAHNHQPLAQGEQKKLEAVLKTFHPWRKGPYHLHGIHIDTEWRSDWKWDRLLPHISPLKNRLVLDVGCGNGYHMWRMLGEGAQQVFGIDPSELFLIQFEAVRKLLGDDQRVHLLPLGIEQMPELNAFDTVFSMGVLYHRRSPLDHLLQLKNQLVAGGELILETLVVEGDEHTVLVPFDRYAQMRNVYFFPSALALKVWLEKTGFVDVRIVDENITSLGEQRTTEWMTHNSLPDYVDPQDPSKTIEGYPAPRRAILIAKKP", "values": [
      {"measurement": "soluble on expression in E. coli", "result": "not soluble"}
    ]},
    {"sequence": "MPSLSEFLRKRRARQRRLQAVPSNNKKKSNNNNIMSSTSSGKSRRAASLSSINNFEHLASVEKAGWLNKWTNYLKGYRQRWFVLDSNATLSYYRNPSEVGHTCRGSINLQEARVHTDKTTSCIVISGQSQTFHVKPQNEMDRQQWTNSLEYMRHKAITRAESEEDEDAQMAKTDSNRSDALILANRQMSGKLCDLRTAANMMNKQGDELMRALNGTVETDKNSLAERADLLKMTTSAVLQAAEEFVELSEQSAKRLNKIVAVEQKEKALLQEQLEALAKQHSSLERAASKCARGAAPVSVYSDQEDDEFHDAEEDLAMPCSNSNGPPATAGVHLTPTKRHIGAGDPSSSTCSDSGAVVVVGAHKGGRQRRTTVPERPNLPINLWSIMKNCIGKELSKIPMPVNFSEPISVLQRVTEDLEYANLLETGAKLSTLEQMCYVAAYAASNYSTTCHRTNKPFNPLLGETFEFDRMDDLGWRSVTEQVSHHPPAAAHHAEGNGWTMYQDFTMTSRFRGKYLSVIPIGFTHVVFPATKSHFSYRKITTTVHNIIVGKLWIDNHGDMEITNHETNEKCLLKFVPYSYFSREQPRKVYGIVRDAEGIPKYVVQGTWDKSIDMLKVSSWNGNHEKPKLEVDETSLKRIWTANPLPKNAEKMHNFTKLAIELNEPEEGVAPTDSRLRPDQRLMENGEWDEANRKKLEIEEKQRVVRRRREAEKELAMKKGDKYEEYEPTWFVRVQDESNGALIHQFKGGYWEAKEQQNWEKCPDIF", "values": [
      {"measurement": "soluble on expression in E. coli", "result": "not soluble"}
    ]},
    {"sequence": "MESQVRQNFHQDCEAGLNRTVNLKFHSSYVYLSMASYFNRDDVALSNFAKFFRERSEEEKEHAEKLIEYQNQRGGRVFLQSVEKPERDDWANGLEALQTALKLQKSVNQALLDLHAVAADKSDPHMTDFLESPYLSESVETIKKLGDHITSLKKLWSSHPGMAEYLFNKHTLG", "values": [
      {"measurement": "soluble on expression in E. coli", "result": "soluble"}
    ]},
    {"sequence": "MSLIHAFIKKGCFQDSVSLMIISRKLSESENVDDVSVMMGTPANKALLDTTGFWHDDFNNATPNDICVAIRSEAADAGIAQAIMQQLEEALKQLAQGSGSSQALTQVRRWDSACQKLPDANLALISVAGEYAAELANQALDRNLNVMMFSDNVTLEDEIQLKTRAREKGLLVMGPDCGTSMIAGTPLAFANVMPEGNIGVIGASGTGIQELCSQIALAGEGITHAIGLGGRDLSREVGGISALTALEMLSADEKSEVLAFVSKPPAEAVRLKIVNAMKATGKPTVALFLGYTPAVARDENVWFASSLDEAARLACLLSRVTARRNAIAPVSSGFICGLYTGGTLAAEAAGLLAGHLGVEADDTHQHGMMLDADSHQIIDLGDDFYTVGRPHPMIDPTLRNQLIADLGAKPQVRVLLLDVVIGFGATADPAASLVSAWQKACAARLDNQPLYAIATVTGTERDPQCRSQQIATLEDAGIAVVSSLPEATLLAAALIHPLSPAAQQHTPSLLENVAVINIGLRSFALELQSASKPVVHYQWSPVAGGNKKLARLLERLQEGHHHHHH", "values": [
      {"measurement": "soluble on expression in E. coli", "result": "soluble"}
    ]},
    {"sequence": "MGSDKIHHHHHHMLEMKATGKSKGQWMFYRNFDDTVDYLSDHTRILSYNPFCHKVEPLDRDEAYRWHFRVTDPQNNPFDVIFNIQQETEILVDLPDEVASMDPEEMSDEMIRQFTVGRKITWRPLAQDKTFTMPEKYLFEGQVTADMLIVPVQQEQTRVDFDLWVNVAFLLYPAFRIVPEKVVRTMVSTGMSLIMQTATNHMFQKISKEFGKIRKL", "values": [
      {"measurement": "soluble on expression in E. coli", "result": "not soluble"}
    ]},
    {"sequence": "GPGSMEETVEHHFVEPNNISHMERHTAYATGPLDIDGGSSDSNCVLTAPSMTVTTSADGSSFVQLTEEDMQLMPEEQSISGGSYDETRTPESVNVVNS", "values": [
      {"measurement": "soluble on expression in E. coli", "result": "not soluble"}
    ]},
    {"sequence": "MQKRVKEGPFTTEWIDLYLEEAVRKGIKEVGIVDHLYRFHEAKGYYEKYVDISDSKLGRIQKEWLDQVKVVSLYDFTKAIEEAKERWGKRGVTLKLGIEADYFIGCEGELKELLALGDFDYVIGSVHFLNGWGFDNPDTKEYFEVHDLRALYDMFFKTVESAIRTELFDIIAHLDNIKVFNYRLDENEQLSYYEEIACALVETNTATEINAGLYYRYPVREMCPSPLYLQVLAKYGVPITISSDAHYPNDLGNYVQENIQTLRAHGVTQVATFTKRARVMRSLEEEVTNSK", "values": [
      {"measurement": "soluble on expression in E. coli", "result": "not soluble"}
    ]},
    {"sequence": "MQMSMLTRLHYFNCVVETGSISKASRIFDVQPSSISRQLTALEKELGVLLLKRTSRNIGLTEAGQTYYKYSQKIVSDLDEARCAVNDLQQKPKGNLKVSMAVGFAECCILPMIPTFTKLYPEINLELEMTGRVVDLVEENVDVAIRTGRLRDSNLIALKLTSNNFLLCASPQYITEHGTPKSPFNLTDFECIRYEYAGWRDWYLMNDKPTKLTIKSGLTVRSINGQKQLILNHAGLALMPKWSVINELDNGTLVQVLEQNIFSPYESMSSTYAIYLKRELISPKVRVFIDFIKDHIDYNS", "values": [
      {"measurement": "soluble on expression in E. coli", "result": "not soluble"}
    ]},
    {"sequence": "MPQTPPFPVMYGSTNGYNKNLYKAKEEDYEGLYYHDNNLISGSLEALIEHLVPTVAYYPDRTYIFTFLLSSRLFLHPYELMSKVCHLCVDQQRLSDPQADKARVRKIAPKILQLLTEWTETFPYDFRDERMMKSLKELTHRLSTGEDLYRKAVQQMTQTLIRKLTTLSQYEEALAKINSSVTDRLTVLKTKPQSIQRDILTICNDPFTLAQQLTHIELERLSYIGPEEFVQAFVQKDPLDNDKNCFSDHKKASNLEAYVEWFNRLSYLVATEICMPVKKKHRARVIEFFIDVARECFNIGNFNSLMAIITGMNMSPVSRLKKTWAKVKTAKFDILEHQMDPSSNFYNYRTALRGATQRSITAHSSREKIVIPFFSLLIKDIYFLNEGCANRLPNGHVNFEKFWGLAKQVTEFMTWKKVECPFDRDRKILQYLLTAPVFSEDALYLASYESEGPENNMEKDRWKSLRSSLLNRT", "values": [
      {"measurement": "soluble on expression in E. coli", "result": "soluble"}
    ]},
    {"sequence": "MVDIVKRRDWEKKEKKKIAIERIDTLFTLAERVARYSPDLAKRYVELALEIQKKAKVKIPRKWKRRYCKRCHTFLIPGVNARVRLRTKRMPHVVITCLECGYIMRYPYLREVKQKRKKAT", "values": [
      {"measurement": "soluble on expression in E. coli", "result": "soluble"}
    ]},
    {"sequence": "SAPGVPDARAIAAICEQLRQHVADLGVLYIKLHNYHWHIYGIEFKQVHELLEEYYVSVTEAFDTIAERLLQLGAQAPASMAEYLALSGIAEETEKEITIVSALARVKRDFEYLSTRFSQTQVLAAESGDAVTDGIITDILRTLGKAIWMLGATLKA", "values": [
      {"measurement": "soluble on expression in E. coli", "result": "soluble"}
    ]},
    {"sequence": "MGSDKIHHHHHHMTYKPKYDNLMENPKIRRWFENLKAKSILTATVYRRTLGYYCELEKTTPEQLLTDMEKLEFRDNFLDFVRRLEKEGKAGSYIVRYKKVLRSWAKFNGIDIKLDVNIANENESPTLDNERVPSKEELSRLLRKATSRGRVSIPIMAFSGFRPETLGNYEGTDGLRLGDIKELKISDEIEFTKIPATIMVKTRLSKARNQYFSFIGEEGITYIKEYLEERKKNGEELTYESPLLQFDVRGTKKNDFMRTMLVTRDIREAITTAGLKMRPYVLRAYFSTALDIAESKGLISHPWRQFIMGHKGDIEARYSTNKRLPPDMIEEMRESYRKCLKFLETRISDVSEDNAKLFLQQQLLSAVGYKQEEIDKLDLSSVSNEDFQQLLRDKVAGAMSDNGAKQKVIPVNEIEQYISDGYDFEAVLPNGKAVMRLRF", "values": [
      {"measurement": "soluble on expression in E. coli", "result": "not soluble"}
    ]},
    {"sequence": "MNETIRRILAESGTKTSKIRKLLLIGLSHREIADLLTRGNRGFVWNVYKRMRDEGLLPASQTATVLRPEPDYTFNRCFGVEIEAYNCPRQTLTDALREAGIPVEIGSRNAETNSNWKLTTDGSLEGSHTFELVSPILCGEQGLEVLERVCWVLDAYNVKINSSCGVHVHFNAGDFNLTTWQNLILSYKHAETEIDKFMPASRRGNRNTYCRSLRGFSDEDIRSAESIESLQRLFGSRYMKVNLEAYSRHRTVEFRQHSGTINFTKIENWVRFLGRMIIFASTASLPAGIRLEDFPFLGEKQKLYYKLRTKKLMV", "values": [
      {"measurement": "soluble on expression in E. coli", "result": "not soluble"}
    ]},
    {"sequence": "MPNHLAGETSPYLLQHAENPVDWYPWGEEALEIARMLDKPILLSIGYSACHWCHVMAHESFEDAQVATAMNEHFVNIKVDREERPDIDQIYQSAHYTLNHRSGGWPLTMFLTPEQKPFFGGTYFPKEARYSMPGFLELLPKVAELYRTRKTDIEKQNA", "values": [
      {"measurement": "soluble on expression in E. coli", "result": "not soluble"}
    ]}
  ]
}
